In patent US6632672:

Target: T1, phiC31 integrase (Streptomyces phage phiC31) (UniProt Q9T221)
T1 sequence: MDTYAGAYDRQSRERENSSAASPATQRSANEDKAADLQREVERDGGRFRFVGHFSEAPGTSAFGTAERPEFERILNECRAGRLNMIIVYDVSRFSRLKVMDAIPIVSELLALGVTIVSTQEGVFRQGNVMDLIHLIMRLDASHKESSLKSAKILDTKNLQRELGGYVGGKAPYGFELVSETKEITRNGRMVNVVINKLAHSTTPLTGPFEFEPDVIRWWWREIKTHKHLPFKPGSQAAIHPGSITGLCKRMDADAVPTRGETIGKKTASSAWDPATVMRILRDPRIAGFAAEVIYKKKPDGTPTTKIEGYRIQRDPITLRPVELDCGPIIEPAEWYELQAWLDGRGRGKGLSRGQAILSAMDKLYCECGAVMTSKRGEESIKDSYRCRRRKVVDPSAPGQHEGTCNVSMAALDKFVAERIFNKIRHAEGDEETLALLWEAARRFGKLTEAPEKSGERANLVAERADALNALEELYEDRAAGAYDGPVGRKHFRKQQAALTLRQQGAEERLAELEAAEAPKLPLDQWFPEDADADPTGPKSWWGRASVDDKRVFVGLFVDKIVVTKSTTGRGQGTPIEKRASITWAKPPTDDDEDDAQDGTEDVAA
Assay: cell_activity

attB34
binding signal (E. coli, relative to full-length attB): 100%

attB full length (pBCPB+)
activity (bimolecular integration of attP donor into EBV plasmid in human 293 cells, corrected for transfection): 7.5% | activity (intramolecular integration with attP in E. coli, all colonies white): 100%

attP full length (221 bp)
activity (intramolecular attB x attP recombination in human 293 cells, SE 2.32%, 16 experiments): 50.6% | activity (intramolecular integration with attB in E. coli, all colonies white): 100%
